# Results from article PMC6113376.
# Columns and labels:
# [1] = molecular target: porcine GP2 isoform 1, incompletely deglycosylated under native conditions (pig); experiment: static adhesion assay (bacteria on coated protein); porcine GP2 incubated in native conditions with (NE) or without (N) deglycosylation enzymes, coated; S. Typhimurium 5744 wild type and its fimH deletion mutant added
# [2] = molecular target: porcine GP2 isoform 2, incompletely deglycosylated under native conditions (pig); experiment: as above
substance,measurement,setting,value
FimH of Salmonella Typhimurium wild type strain Tym5744 (from UniProt P37925 23-335) (natural protein),percent decrease of binding against GP2 that was not digested,[1],59%
same,percent decrease of binding against GP2 that was not digested,[2],53%
